From PMC7720148 come the findings set out here.

What all share (assay): single-molecule force spectroscopy
In test [1] the target is unmodified nucleosome (human histone octamer on 601 DNA) in nucleosome arrays (human) (UniProt P04908).
Test [2] concerns the target 12-mer array with 50% H3K27M mutant copies of H3 (human) (UniProt P04908).
The target of test [3] is 12-mer array with an equimolar mixture of unmodified and H3K27me3-containing nucleosomes (UniProt P04908).
Test [4] addresses H3K27M mutant nucleosome (100% H3K27M 12-mer array) (human) (UniProt P04908).

For the substance “PRC2–AEBP2 complex (from UniProt Q15910;O75530;Q09028;Q15022;Q6ZN18)”, the average transition force (all clusters) in test [1] is 14.5 pN.

Turning to “Polycomb repressive complex 2 (PRC2) core complex (from UniProt Q15910;O75530;Q09028;Q15022)”, the average transition force (all clusters), with SAM in test [2] was 18.3 pN. For the same substance, in test [3], the average rupture force of C3 transitions stood at 14.6 pN and the average rupture force of C4 transitions is 16.9 pN. Besides, in test [4], the average C3 transition force, with SAM was determined as 19.6 pN; the average C4 transition force, with SAM came to 26.1 pN; the average transition force (all clusters), with SAM was determined as 19.6 pN. In test [1], this substance displayed an average C3 transition force, with SAM of 17.8 pN; an average C4 transition force, with SAM of 19.8 pN; an average rupture force of C3 transitions (adjacent nucleosome pair) of 16.3 pN; an average transition force (all clusters) of 17 pN. This substance also showed an average transition force (all clusters), with SAM in test [1] of 17.8 pN.
